Test results: the supplement of paper PMC10899765

Experiments:
Conditions in all cases: 20 nM; 72 h
MCF10A [1] = assay: 5+ nucleoli phenotype percent effect (relative to siNT 0% and siKIF11 100%); higher = more cells with five or more nucleoli
Method: (§1)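 After 72 h, cells were fixed and stained with Hoechst and anti-fibrillarin, and nucleoli per nucleus were counted with CellProfiler. Values are plate-adjusted percent effect for the one-nucleolus and 5+ nucleoli phenotypes, normalised to siNT (0%) and to the positive controls siNOL11 or siKIF11 (100%), as the mean of biological triplicates. Percent viability is the nuclei count relative to siNT.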

MCF10A [2] = assay: percent viability (nuclei count relative to siNT); higher = more viable cells
Method: as §1

MCF10A [3] = assay: one-nucleolus phenotype percent effect (relative to siNT 0% and siNOL11 100%); higher = more cells with one nucleolus (ribosome biogenesis inhibition)
Method: as §1

| Sequence | 5+ nucleoli phenotype percent effect (MCF10A [1]) | percent viability (MCF10A [2]) | one-nucleolus phenotype percent effect (MCF10A [3]) |
| --- | --- | --- | --- |
| GAAGGCGCUUCCCUUUGGAGU [hsa-miR-524-3p] | -9.32% | 70.4% | 35.1% |
| GAAGUGCUUCGAUUUUGGGGUGU [hsa-miR-373-3p] | 47.5% | 65.4% | -22.2% |
| GAAGUGUGCCGUGGUGUGUCU [hsa-miR-595] | -22% | 30.6% | 12.4% |
| GAAGUUGCCCAUGUUAUUUUCG [hsa-miR-495-5p] | -1.1% | 42.2% | 1.67% |
| GAAGUUGUUCGUGGUGGAUUCG [hsa-miR-382-5p] | -18.5% | 37.7% | 27.9% |
| GAAUACGUCUGGUUGAUCC [hsa-miR-6082] | 67.8% | 186% | -25.8% |
| GAAUACUAAGUAAAAAAUCAGUA [hsa-miR-8084] | 66.7% | 215% | -33.5% |
| GAAUAUGGGUAUAUUAGUUUGG [hsa-miR-5583-3p] | 43.7% | 65.4% | -14.1% |
| GAAUCGGAAAGGAGGCGCCG [hsa-miR-3610] | 19.9% | 93.4% | -7.32% |
| GAAUGUUGCUCGGUGAACCCCU [hsa-miR-409-3p] | -31.1% | 35.9% | 9.98% |
| GACAAUUGUUGAUCUUGGGCCU [hsa-miR-7849-3p] | -19.1% | 74.7% | 8.55% |
| GACACAUGACCAUAAAUGCUAA [hsa-miR-4643] | 36.8% | 109% | -11.7% |
| GACACGGGCGACAGCUGCGGCCC [hsa-miR-602] | 45.6% | 91.9% | -18.7% |
| GACACUAGGCAUGUGAGUGAUU [hsa-miR-4704-5p] | 0.429% | 65% | -20.2% |
| GACAGAGUGCCACUUACUGAA [hsa-miR-4797-5p] | -25.1% | 23.7% | 41.8% |
| GACAUUCAGACUACCUG [hsa-miR-4262] | -5.77% | 86.4% | 6.49% |
| GACCGAGAGGGCCUCGGCUGU [hsa-miR-4523] | 18.2% | 67.7% | -18% |
| GACCUGGACAUGUUUGUGCCCAGU [hsa-miR-619] | 64.8% | 128% | -30.8% |
| GACUAUAGAACUUUCCCCCUCA [hsa-miR-625-3p] | 19.1% | 104% | -5.42% |
| GACUCACUCACAGGAUUGUGCA [hsa-miR-3680-5p] | 39.7% | 58.9% | -12% |
| GACUGACACCUCUUUGGGUGAA [hsa-miR-888-3p] | 8.85% | 84.1% | -18.1% |
| GACUGGACAAGCUGAGGAA [hsa-miR-3654] | 68.1% | 99.2% | -25.9% |
| GAGAAAUGCUGGACUAAUCUGC [hsa-miR-5680] | 27.3% | 93.7% | -20.6% |
| GAGACAGGUUCAUGCUGCUA [hsa-miR-4524b-3p] | -32.4% | 25.8% | 37.3% |
